Laboratory results reported in article PMC2926940 (Nature structural & molecular biology, 2010).
Residue numbers refer to the chain shown, from its start. Numbers in names are those of the source. Values belong to the molecule of their own block, whether it stands above or below them.

Legend:
[1] = molecular target: c-Jun phosphopeptide (Homo sapiens) (UniProt P05412); details: cited from earlier work
[2] = molecular target: Abl SH2 domain, His-tagged (immobilised for SPR) (human) (UniProt P00519); experiment: SPR
[3] = molecular target: Abl SH2 domain spotted on the SH2 microarray (human); experiment: peptide or protein array
[4] = molecular target: tandem SH2 domains of Syk spotted on the SH2 microarray; experiment: peptide or protein array
[5] = molecular target: Blk SH2 domain spotted on the SH2 microarray (UniProt P51451); experiment: peptide or protein array
Sequence of Blk SH2 domain spotted on the SH2 microarray (P51451 124-220): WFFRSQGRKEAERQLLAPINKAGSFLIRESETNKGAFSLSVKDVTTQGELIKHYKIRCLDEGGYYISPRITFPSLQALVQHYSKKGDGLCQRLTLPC

[6] = molecular target: Abl2 (Arg) SH2 domain spotted on the SH2 microarray (UniProt P42684); experiment: peptide or protein array
Sequence of Abl2 (Arg) SH2 domain spotted on the SH2 microarray (P42684 173-263): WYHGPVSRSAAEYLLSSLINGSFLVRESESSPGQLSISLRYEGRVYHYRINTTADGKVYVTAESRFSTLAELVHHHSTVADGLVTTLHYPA

[7] = molecular target: Grb7 SH2 spotted on the SH2 microarray (UniProt Q14451); experiment: peptide or protein array
Sequence of Grb7 SH2 spotted on the SH2 microarray (Q14451 431-527): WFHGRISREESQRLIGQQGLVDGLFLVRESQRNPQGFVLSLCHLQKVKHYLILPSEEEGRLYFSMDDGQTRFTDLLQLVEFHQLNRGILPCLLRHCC

[8] = molecular target: T1, Abl SH2 domain, His-tagged (immobilised for SPR) (human, UniProt P00519-2); experiment: SPR
T1 sequence: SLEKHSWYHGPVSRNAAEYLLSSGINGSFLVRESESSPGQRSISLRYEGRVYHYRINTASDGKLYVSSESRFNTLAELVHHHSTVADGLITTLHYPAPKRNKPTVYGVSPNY

Sequence of c-Jun phosphopeptide (Homo sapiens) (P05412 whole entry, the tested form may be a part): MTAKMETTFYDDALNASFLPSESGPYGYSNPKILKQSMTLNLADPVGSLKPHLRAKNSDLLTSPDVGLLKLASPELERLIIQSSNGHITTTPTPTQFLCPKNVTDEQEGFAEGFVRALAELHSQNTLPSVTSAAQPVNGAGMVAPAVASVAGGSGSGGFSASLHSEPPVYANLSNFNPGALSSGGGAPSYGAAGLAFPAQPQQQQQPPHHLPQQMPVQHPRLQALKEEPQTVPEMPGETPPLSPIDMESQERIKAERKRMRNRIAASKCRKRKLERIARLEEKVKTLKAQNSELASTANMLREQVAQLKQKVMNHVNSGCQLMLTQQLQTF

Molecule: Abl SH2 (from UniProt P00519)
Kd [1]: 7000 nM

Molecule: HA4 R38A (designed binder)
ΔΔG of binding against HA4 [2]: 2.2 kcal/mol

Molecule: HA4 Y35A (designed binder)
ΔΔG of binding against HA4 [2]: 0.8 kcal/mol

Molecule: monobody HA4 (designed binder)
Kd [2]: 7 nM

B3: HA4 W80A (designed binder)
chain: GSSVSSVPTKLEVVAATPTSLLISWDAPMSSSSVYYYRITYGETGGNSPVQEFTVPYSSSTATISGLSPGVDYTITVYAAGEDSAGYMFMYSPISINYRTC
ΔΔG of binding against HA4 [8]: ≥ 3.8 kcal/mol

The remaining lines, values ahead:

ΔΔG of binding against HA4 [2]: 2.4 kcal/mol
Molecule: HA4 E52A (designed binder)

Kd [3]: 22 nM
Kd [4]: 28 nM
Kd [5]: 109 nM
Kd [6]: 18 nM
Kd [7]: 169 nM
Molecule: monobody HA4 labelled with DyLight 800 (designed binder)

ΔΔG of binding against HA4 [8]: ≥ 3.8 kcal/mol
B1: HA4 Y36A (designed binder)
chain: B3 chain with Y36A, A80W

ΔΔG of binding against HA4 [8]: ≥ 3.8 kcal/mol
B2: HA4_(Y87A) (designed binder)
chain: B3 chain with A80W, Y87A

ΔΔG of binding against HA4 [8]: ≥ 3.8 kcal/mol
B4: HA4 M88A (designed binder)
chain: B3 chain with A80W, M88A
